Results on two molecules are retold here after US20120164159A1 (OPSONA THERAPEUTICS, published 2012).

The target in experiment [1] is T1, monkey Toll-like Receptor 2 expressed on cynomologus monkey whole blood cells (granulocytes, monocytes) (cynomologus monkey, UniProt Q95M53 19-784).
T1 construct: whole, on cells; also called monkey TLR2
Put plainly: FACS, cynomolgus whole blood, gate Granulocytes (R3), OPN305 + FITC mouse anti-hIgG4 [A].

For experiment [2], the target named is T2, rhTLR-2 (recombinant human TLR-2) (human, UniProt O60603 21-588, limits assumed).
T2 construct: Soluble recombinant protein reconstituted from dry powder, used as SPR analyte; also called glycosylated human receptor analyte
T2 sequence (O60603 21-588 limits assumed): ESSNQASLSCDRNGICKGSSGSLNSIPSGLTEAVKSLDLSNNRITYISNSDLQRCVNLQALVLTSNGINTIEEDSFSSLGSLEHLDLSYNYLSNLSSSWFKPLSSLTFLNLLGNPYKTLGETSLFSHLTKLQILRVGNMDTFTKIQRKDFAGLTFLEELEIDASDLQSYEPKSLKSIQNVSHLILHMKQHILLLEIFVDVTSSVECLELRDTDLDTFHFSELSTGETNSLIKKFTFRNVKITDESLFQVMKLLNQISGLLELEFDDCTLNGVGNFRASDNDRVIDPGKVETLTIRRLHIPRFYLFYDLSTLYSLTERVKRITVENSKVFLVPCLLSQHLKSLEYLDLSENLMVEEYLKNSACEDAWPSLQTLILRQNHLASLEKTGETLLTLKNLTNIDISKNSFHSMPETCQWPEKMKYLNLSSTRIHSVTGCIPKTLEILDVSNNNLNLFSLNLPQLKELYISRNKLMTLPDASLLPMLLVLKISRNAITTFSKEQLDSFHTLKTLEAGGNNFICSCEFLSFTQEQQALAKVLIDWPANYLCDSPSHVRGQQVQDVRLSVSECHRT
Put plainly: SPR, Biacore T100, antibody amine-coupled to CM5 chip, receptor as analyte, bivalent binding model, 25 C. The protocol:
(§1) Upon insertion of the CM5 chip the system was primed and then normalised with BIAnormalising solution (Biacore Preventative Maintenance Kit 2). All samples were run at 25° C. with a sample rack incubated at 25° C. unless stated. The chip was added to the system with HBS-EP used as the running buffer. The chip surface was primed with two 30 second injections of 50 mM NaOH then left until a stable baseline was obtained in all the Flow cells (Fcs).
(§2) All antibodies were immobilised using standard amine coupling chemistry. Immobilisation was carried out at a protein concentration of around 1 μg.ml-1 in 10 mM Acetate buffer pH5.5 to a target response level of 150RUs on three CM5 Series S sensor chips. Kinetic data was obtained at a flow rate of 40 μl·min-1 to minimise any potential mass transfer effects. The blank (no receptor) and a single concentration of the analytes (100 nM) was repeated at the start of the kinetic runs in order to check the stability of both the surface and two receptors over the kinetic analyses. Two repeats of the kinetic analysis were carried out and the results compared.
(§3) Association rates (Kₒₙ) and dissociation rates (Koff) were calculated using a bivalent binding model (BIAcore Evaluation Software version 3.2). The equilibrium dissociation constant (Ko) was calculated as the ratio […].
For orientation: In SPR one partner is held on a chip, and binding of the other changes the refractive index at the surface.

Experiment [3] addresses T3, rmTLR2/Fc (recombinant murine TLR-2) (Mus musculus, UniProt Q9QUN7 25-587, limits assumed).
T3 construct: Recombinant Fc fusion used as SPR analyte, MW of 98 kDa printed; also called murine receptor
T3 sequence: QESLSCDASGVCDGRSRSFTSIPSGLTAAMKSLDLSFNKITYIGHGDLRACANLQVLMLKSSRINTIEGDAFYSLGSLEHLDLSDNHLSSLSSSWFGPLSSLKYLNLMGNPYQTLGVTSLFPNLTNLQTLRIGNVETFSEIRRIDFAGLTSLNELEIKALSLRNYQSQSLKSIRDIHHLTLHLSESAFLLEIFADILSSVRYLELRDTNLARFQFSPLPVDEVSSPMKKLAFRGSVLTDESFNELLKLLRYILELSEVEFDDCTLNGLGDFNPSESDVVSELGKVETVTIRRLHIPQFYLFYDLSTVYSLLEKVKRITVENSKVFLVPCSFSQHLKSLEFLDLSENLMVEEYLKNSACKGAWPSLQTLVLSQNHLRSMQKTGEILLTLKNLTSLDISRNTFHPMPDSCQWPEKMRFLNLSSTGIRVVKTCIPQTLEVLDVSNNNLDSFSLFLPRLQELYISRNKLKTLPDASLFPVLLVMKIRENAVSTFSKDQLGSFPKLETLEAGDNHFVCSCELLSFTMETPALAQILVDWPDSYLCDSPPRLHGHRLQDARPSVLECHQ
The description is as above. As for the experimental part:
as §1, §2, §3

In experiment [4] the target is T1, monkey Toll-like Receptor 2 expressed …. Put plainly: FACS, cynomolgus whole blood, gate Granulocytes (R3), biotinylated OPN301, detection SA-PECy7 [A]. The protocol:
Cells were then washed and incubated with streptavidin conjugated to PECy7 for a further 30 minutes.
Binding was measured using FACScalibur from Becton Dickinson. FIG. 14A relates to granulocytes. FIG. 14B relates to monocytes. FIG. 14C relates to lymphocytes. […] Accordingly, it can again be seen that OPN305 is competing for monkey Toll-like Receptor 2 binding.
A general note: In flow cytometry, cells or beads pass a laser one at a time.

T1 sequence (Q95M53 19-784): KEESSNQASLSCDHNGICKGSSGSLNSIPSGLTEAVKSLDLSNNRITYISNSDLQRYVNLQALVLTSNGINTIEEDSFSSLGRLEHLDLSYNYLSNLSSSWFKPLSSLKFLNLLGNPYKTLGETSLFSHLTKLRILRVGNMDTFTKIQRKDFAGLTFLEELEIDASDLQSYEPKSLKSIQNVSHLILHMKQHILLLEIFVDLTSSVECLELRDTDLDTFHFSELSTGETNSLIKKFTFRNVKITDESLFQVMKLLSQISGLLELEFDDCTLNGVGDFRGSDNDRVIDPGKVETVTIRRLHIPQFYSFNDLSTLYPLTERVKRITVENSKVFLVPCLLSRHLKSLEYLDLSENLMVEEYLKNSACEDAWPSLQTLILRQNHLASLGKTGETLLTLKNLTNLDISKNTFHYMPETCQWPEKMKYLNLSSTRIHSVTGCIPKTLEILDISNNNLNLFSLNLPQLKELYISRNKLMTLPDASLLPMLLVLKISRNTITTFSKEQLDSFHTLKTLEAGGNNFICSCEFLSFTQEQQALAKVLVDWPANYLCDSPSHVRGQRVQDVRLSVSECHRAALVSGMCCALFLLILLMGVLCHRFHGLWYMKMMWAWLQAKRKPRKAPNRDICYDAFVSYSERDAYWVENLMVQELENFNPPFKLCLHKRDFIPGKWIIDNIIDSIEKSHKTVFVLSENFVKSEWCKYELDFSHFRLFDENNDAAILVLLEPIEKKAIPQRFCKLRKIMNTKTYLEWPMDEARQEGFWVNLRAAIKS

B1: OPN-305 fully humanised anti-Toll-like Receptor 2 monoclonal antibody (antibody, human IgG4 S228P, kappa, V domains shown)
VH: QVQLVQSGSELKKPGASVKLSCKASGFTFTTYGINWVRQAPGQGLEWIGWIYPRDGSTNFNENFKDRATITVDTSASTAYMELSSLRSEDTAVYFCARLTGGTFLDYWGQGTTVTVSS
VL: DIVLTQSPATLSLSPGERATLSCRASESVEYYGTSLMQWYQQKPGQPPKLLIFGASNVESGVPDRFSGSGSGTDFTLKISRVEAEDVGMYFCQQSRKLPWTFGGGTKVEIKR
notes: made in NS0 cells; also called variant 21
With B1, the binding result in experiment [1] is reported as “binds”. Further, in experiment [2], the Kd turned out to be 28.9 nM, the dissociation rate constant (koff) was determined as 8.95e-05 s⁻¹ and the kon was determined as 3100 M⁻¹ s⁻¹. In experiment [3], the Kd was 11.9 nM, the koff was found to be 8.2e-05 s⁻¹ and the on-rate constant (kon) turned out to be 6770 M⁻¹ s⁻¹.

B2: T2.5 murine anti-Toll-like Receptor 2 monoclonal antibody (clone T2.5, HyCult Biotechnology, catalogue number 1054) (antibody, mouse IgG1, V domains shown)
VH: QVQLQQSGPELVNPGASVKLSCKASGFTFTTYGINWVKQGPGQGLEWIGWIYPRDGSTNFNENFKDKAALTVDTSSSTAYMELHSLTSEDSAVYFCARLTGGTFLDYWGQGTTLTVSS
VL: DIVLTQSPASLAVSLGQRATISCRASESVEYYGTSLMQWYQQKPGQPPKLLIFGASNVESGVPVRFSGSGSGTDFSLNIHPVEEDDIVMYFCQQSRKLPWTFGGGTKLEIK
notes: Murine IgG1, bought; also called OPN301
For B2, in experiment [2], the Kd was 48.2 nM, the koff was 0.00023 s⁻¹ and the kon worked out at 4820 M⁻¹ s⁻¹. Also, in experiment [3], the Kd turned out to be 15.6 nM, the koff was found to be 0.000141 s⁻¹ and the kon was determined as 9700 M⁻¹ s⁻¹. Also, the binding result in experiment [4] is “binds”.

The term koff denotes the first-order rate constant of dissociation. What is called kon is a measure of how fast the partners come together.
